# Measurements from patent US9266930.
# Like-named read-outs stand apart in the source and are kept apart here.
# T1: HLA-DR5w12 (DRB1*1201) (human)
# T1 chain 1: not shown
# T1 chain 2: not shown
# T2: HLA-DR6w19 (DRB1*1302) (human)
# T2 chain 1: not shown
# T2 chain 2: not shown
# T3: HLA-DR7 (DRB1*0701) (human)
# T3 chain 1: not shown
# T3 chain 2: not shown
# T4: HLA-DR8w2 (DRB1*0802) (human)
# T4 chain 1: not shown
# T4 chain 2: not shown
# T5: HLA-DR9 (DRB1*0901) (human)
# T5 chain 1: not shown
# T5 chain 2: not shown
# What was measured:
# [1] = biological target: HLA-DR3 (DRB1*0301) (human); assay: competition with 125I-labeled probe peptide on purified HLA-DR, gel filtration
# HLA-A*0201 (Human) [2] = biological target: HLA-A*0201 (Human)
# HLA-A*0201 (human) [3] = biological target: HLA-A*0201 (human)
# [4] = biological target: HLA-DR2w2β1 (DRB1*1501) (human)
# [5] = biological target: HLA-DR2w2β2 (DRB5*0101) (human)
# [6] = biological target: HLA-DR5w11 (DRB1*1101) (human)
# [7] = biological target: HLA-DR1 (DRB1*0101) (human)
# [8] = biological target: HLA-DR3 (DRB1*0301) (human)
# [9] = biological target: HLA-DR4w15 (DRB1*0405) (human)
# [10] = biological target: HLA-DR4w4 (DRB1*0401) (human)
# [11] = biological target: HLA-A*1101 (purified HLA class I molecule) (human)
# HLA-A*0201 (human) [12] = assay: competition with 125I probe peptide for purified HLA, gel filtration
# [13] = biological target: T1, HLA-DR5w12 (DRB1*1201) (human)
# [14] = biological target: T2, HLA-DR6w19 (DRB1*1302) (human)
# [15] = biological target: T3, HLA-DR7 (DRB1*0701) (human)
# [16] = biological target: T4, HLA-DR8w2 (DRB1*0802) (human)
# [17] = biological target: T5, HLA-DR9 (DRB1*0901) (human)
# HLA-A*1101 (human) [18] = biological target: HLA-A*1101 (human)
# HLA-A*1101 (human) [19] = biological target: HLA-A*1101 (human); remark: listed apart in the source
# HLA-A*0301 (human) = assay: competition with 125I-labeled probe peptide for purified HLA, gel filtration; details: scale: ratio
# HLA-A*1101 (human) [20] = assay: as above; details: scale: ratio
binder,measurement,setting,value
VEALFQEYQCYGSSS (modifications not checked),binding affinity ratio (IC50 standard peptide / IC50 test peptide),[1],0.0082
"KLATSVLAGL (modifications not checked) [… (EXP position 75, 10 amino acids)]",binding affinity ratio (IC50 of standard peptide / IC50 of test peptide),HLA-A*0201 (Human) [2],0.0047
"NMPNDPNRNV (modifications not checked) [… (P. falciparum CSP, position 323, 10 amino acids)]",binding affinity ratio (IC50 of standard peptide / IC50 of test peptide),HLA-A*0201 (human) [3],0.0007
ANQLVVILTDGIPDS (modifications not checked),binding affinity ratio (IC50 of standard peptide / IC50 of test peptide),[4],0.0008
same,binding affinity ratio (IC50 of standard peptide / IC50 of test peptide),[5],-0.0005
same,binding affinity ratio (IC50 of standard peptide / IC50 of test peptide),[6],-0.0002
IGPFMKAVCVEVEKT (modifications not checked),binding affinity ratio (IC50 of standard peptide / IC50 of test peptide),[7],0.0072
same,binding affinity ratio (IC50 of standard peptide / IC50 of test peptide),[4],0.0003
same,binding affinity ratio (IC50 of standard peptide / IC50 of test peptide),[8],-0.0008
same,binding affinity ratio (IC50 of standard peptide / IC50 of test peptide),[9],0.0086
same,binding affinity ratio (IC50 of standard peptide / IC50 of test peptide),[10],-0.0006
same,binding affinity ratio (IC50 of standard peptide / IC50 of test peptide),[6],-0.0004
"SDASKNKEK (modifications not checked) [… (Pf SSP2 105, 9-mer)]",binding affinity ratio (IC50 of standard peptide / IC50 of test peptide),[11],0.0002
GLIMVLSFL (modifications not checked) [1167.08],IC50,HLA-A*0201 (human) [12],22 nM
ILSVFFLALFFIIFN (modifications not checked) [… (Pf EXP 3)],binding affinity ratio (IC50 of standard peptide / IC50 of test peptide),[13],0.0008
same,binding affinity ratio (IC50 of standard peptide / IC50 of test peptide),[14],0.0005
same,binding affinity ratio (IC50 of standard peptide / IC50 of test peptide),[15],0.011
same,binding affinity ratio (IC50 of standard peptide / IC50 of test peptide),[16],0.0031
same,binding affinity ratio (IC50 of standard peptide / IC50 of test peptide),[17],-0.0003
ADSAWENVK (modifications not checked) [… (Pf SSP2 position 216)],binding affinity ratio (IC50 of standard peptide / IC50 of test peptide),HLA-A*1101 (human) [18],0.0009
"GTGSGVSSKK (modifications not checked) [… (P. falciparum EXP-1, position 28)]",binding affinity ratio (IC50 of standard peptide / IC50 of test peptide),HLA-A*1101 (human) [19],0.034
"SVTCGKGTR (modifications not checked) [… (Pf SSP2 254, 9-mer)]",binding affinity ratio (IC50 of standard peptide / IC50 of test peptide),[11],0.0009
"GVSSKKKNK (modifications not checked) [… (P. falciparum EXP, position 32, 9 amino acids)]",binding affinity ratio (relative to standard peptide),HLA-A*0301 (human),0.0001
same,binding affinity ratio (relative to standard peptide),HLA-A*1101 (human) [20],0.0002
VSTVLLGGVGLVLYN (modifications not checked) [… (Pf EXP 88)],binding affinity ratio (IC50 of standard peptide / IC50 of test peptide),[13],0.0011
same,binding affinity ratio (IC50 of standard peptide / IC50 of test peptide),[14],0.0002
same,binding affinity ratio (IC50 of standard peptide / IC50 of test peptide),[15],0.002
same,binding affinity ratio (IC50 of standard peptide / IC50 of test peptide),[16],-0.0002
same,binding affinity ratio (IC50 of standard peptide / IC50 of test peptide),[17],0.012
"GVSSKKKNKK (modifications not checked) [… (P. falciparum EXP, position 32, 10 amino acids)]",binding affinity ratio (relative to standard peptide),HLA-A*0301 (human),0.0011
same,binding affinity ratio (relative to standard peptide),HLA-A*1101 (human) [20],0.0002
NLPNDKSDR (modifications not checked) [… (Pf SSP2 406)],binding affinity ratio (IC50 of standard peptide / IC50 of test peptide),HLA-A*1101 (human) [18],0.0002
